The values that follow come from US20230250157A1.

The target in this assay is sarbecoviruses tested (pseudovirus spikes). The assay is described as follows: cell-based or functional assay.

B1: HSW-1 (antibody, V domains shown)
VH: QVQLQQPGAELVKPGTSMKLSCKASGYTFTSYWMHWVKQRPGQGLEWIGMIHPNSGSTKYNENFKSKATLTVDKSSSTAYMQFSSLTSEDSAVYYCVRSGSYYGTTYDYFDYWGQGTTLTVSS
VL: DIVLTQSPASLAVSLGQRATISCRASESVNIYGNSFMHWYQQKPGQPPKLLIFRASNLESGIPVRFSGSGSRTDFTLTINPVEADDVATYYCHQSNEDPFTFGSGTKLEIK
The molecule B1 registered a pseudovirus neutralization IC50 of more than 10 µg/mL.

B2: HSW-2 (antibody, V domains shown)
VH: QVQLQQSGPELVKPGASVKISCKASGYVFSTSWMSWVKQRPGEGPEWIGRIYPRDGHSSSTGKFKDKATLTADKSSNTAYIHLSSLTSEDSAVYFCARDYGYYYFDYWGQGTTLTVSS
VL: DIQMTQSPASLSASVGEAVTITCRLSENVYSFLAWYQQKQGKSPQLLVYRAKTLAEGVPSRFSGSGSGTQFSLKINSLQPEDFGTYYCQHHYGTPPTFGGGTKLEIK
For B2, the pseudovirus neutralization IC50 is more than 10 µg/mL.
